From patent US8357523B2, “Beta-glucosidase variant enzymes and related polynucleotides” (Codexis, Inc., priority 2009, dated 2013)
Substitutions are numbered along the chain they refer to.

B1: 77 (protein)
chain: STAIAQEGAAPAAILHPEKWPRPATQRLIDPAVEKRVDALLKQLSVEEKVGQVIQGDIGTITPEDLRKYPLGSILAGGNSGPNGDDRAPPKEWLDLADAFYRVSLEKRPGHTPIPVLFGIDAVHGHGNIGSATIFPHNIALGATRDPELLRRIGEVTAVEMAATGIDWTFAPALSVVRDDRWGRTYEGFSEDPEIVAAYSPAIVEGVQGKFGSKDFMAPGRIVACAKHFLADGGTDQGRDQGDARISEDELIRIHNAGYPPAIDAGVLTVMASFSSWQGIKHHGHKQLLTDVLKGQMGFNGFIVGDWNAHDQVPGCTKFNCPTSLIAGLDMYMAADSWKQLYENTLAQVKDGTIPMARLDDAVRRILRVKVLAGLFEKPAPKDRPGLPGLETLGSPEHRAVGREAVRKSLVLLKNDKGTLPLSPKARVLVAGDGADNIGKQSGGWTISWQGTGNRNDEFPGATSILGGIRDAVADAGGSVEFDVAGQYKTKPDVAIVVFGEEPYAEFQGDVETLEYQPDQKQDLALLKKLKDQGIPVVAVFLSGRPMWVNPELNASDAFVAAWLPGTEGGGVADVLFTDKAGKVQHDFAGKLSYSWPRTAAQTTVNRGDADYNPLFAYGYGLTYKDKSKVGTLPEESGVPAEARQNAGIYFRAGALRLPGRFL
B2: 165 (protein)
chain: B1 chain with A143M
B3: 166 (protein)
chain: B1 chain with N79D, G154V, P201A, F211Y
B4: 167 (protein)
chain: B1 chain with N79D, N128K, P201A, C225S
B5: 168 (protein)
chain: B1 chain with N128K, V159Q, F211Y, I222S
B6: 169 (protein)
chain: B1 chain with N79D, V159Q, A162T, F211Y
B7: 170 (protein)
chain: B1 chain with N128K, D146S, V159E, F211Y, A573V
B8: 171 (protein)
chain: B1 chain with N79D, V159E, A198S, P201A, F211Y, P219V, C225S
B9: 78 (protein)
chain: B1 chain with P201A
B10: 172 (protein)
chain: B1 chain with V159Q, P201A, F211Y, I222S, G534E
B11: 173 (protein)
chain: B1 chain with I14M, N79D, N128K, A162T, F211Y, Q487R
B12: 174 (protein)
chain: B1 chain with E34D, N79D, N128K, A143M, V159E, F211Y, C225S
B13: 175 (protein)
chain: B1 chain with N79D, D146S, A198S, P201A, F211Y
B14: 79 (protein)
chain: B1 chain with N128K, P201A
B15: 178 (protein)
chain: B1 chain with A198S, P201A, F211Y, I222A, A373T
B16: 179 (protein)
chain: B1 chain with N79D, N128K, A173C, A198S, P201A, F211Y, C225S
B17: 80 (protein)
chain: B1 chain with N128K, A162T, P201A
B18: 180 (protein)
chain: B1 chain with N79D, N128K, D146S, P201A, A655T
B19: 181 (protein)
chain: B1 chain with N128K, A143M, V159E, P201A, F211Y
B20: 182 (protein)
chain: B1 chain with N79D, I114T, N128K, V159Q, A173C, A198S, P201A, F211Y, P219V, C225S
B21: 183 (protein)
chain: STAIAQEGAAPAAILHPEKWPRPATQRLIDPAVEKRVDALLKQLSVEEKVGQVIQGDIGTITPEDLRKYPLGSILAGGDSGPNGDDRAPPKEWLDLADAFYRVSLEKRPGHTPIPVLFGIDAVHGHGNIGSATIFPHNIALGATRSPELLRRIGEVTAVEMTATGIDWTFAPALSVVRDDRWGRTYEGFSEDPEIVASYSAAIVEGVQGKYGSKDFMAPGRAVACAKHFLADGGTDQGRDQGDARISEDELIRIHNAGYPPAIDAGVLTVMASFSSWQGIKHHGHKQLLTDVLKGQMGFNGFIVGDWNAHGQVPGCTKFKCPTSLIAGLDMYMAADSWKQLYENTLAQVKDGTIPMAHLDDAVRRILRVKVLAGLFEKPAPKDRPGLPGLETLGSPEHRAVGREAVRKSLVLLKNDKGTLPLSPKARVLVAGDGADNIGKQSGGWTISWQGTGNRNDEFPGATSILGGIRDAVADAGGSVEFDVAGQYKTKPDVAIVVFGEEPYAEFQGDVETLEYQPDQKQDLALLKKLKDQGIPVVAVFLSGRPMWVNPELNASDAFVAAWLPGTEGGGVADVLFTDKAGKVQHDFAGKLSYSWPRTAAQTTVNRGDADYNPLFAYGYGLTYKDKSKVGTLPEESGVPAEARQNAGIYFRAGALRLPGRLL
B22: 81 (protein)
chain: B1 chain with E18R, P23L, E34K, E47K, P70S, P201A
B23: 184 (protein)
chain: B1 chain with N79D, N128K, D146S, V159Q, F211Y, P219V, C225S, I280V
B24: 185 (protein)
chain: B1 chain with V159Q, A198S, P201A, F211Y, I222A, P381S
B25: 186 (protein)
chain: B1 chain with N79D, N128K, I134N, V159Q, P201A
B26: 188 (protein)
chain: B21 chain with N128K, A222I, C225S, G311D, K320N, H358R, L662F
B27: 189 (protein)
chain: B1 chain with P201A, C225S, F274K

Test: High throughput cellobiose assay: fold improvement in cellobiase activity of CelA variants over a control enzyme (Tables 2A-2D, 3, 5, 6, 7)
Format: biochemical
Details: 3.3 g/l cellobiose, 55° C. and pH 6.0

Row | Molecule | Fold improvement over Control Variant No. 5 from Table 2A
1 | B1 | ++ (++ = 1.1 to 6 fold improvement over control Variant No. 2)
2 | B2 | +++ (+++ = 6 to 13 fold improvement over control Variant No. 2)
3 | B3 | +++ (+++ = 6 to 13 fold improvement over control Variant No. 2)
4 | B4 | ++ (++ = 1.1 to 6 fold improvement over control Variant No. 2)
5 | B5 | +++ (+++ = 6 to 13 fold improvement over control Variant No. 2)
6 | B6 | +++ (+++ = 6 to 13 fold improvement over control Variant No. 2)
7 | B7 | ++ (++ = 1.1 to 6 fold improvement over control Variant No. 2)
8 | B8 | +++ (+++ = 6 to 13 fold improvement over control Variant No. 2)
9 | B9 | ++ (++ = 1.1 to 6 fold improvement over control Variant No. 2)
10 | B10 | +++ (+++ = 6 to 13 fold improvement over control Variant No. 2)
11 | B11 | +++ (+++ = 6 to 13 fold improvement over control Variant No. 2)
12 | B12 | ++ (++ = 1.1 to 6 fold improvement over control Variant No. 2)
13 | B13 | +++ (+++ = 6 to 13 fold improvement over control Variant No. 2)
14 | B14 | ++ (++ = 1.1 to 6 fold improvement over control Variant No. 2)
15 | B15 | +++ (+++ = 6 to 13 fold improvement over control Variant No. 2)
16 | B16 | +++ (+++ = 6 to 13 fold improvement over control Variant No. 2)
17 | B17 | +++ (+++ = 6 to 13 fold improvement over control Variant No. 2)
18 | B18 | +++ (+++ = 6 to 13 fold improvement over control Variant No. 2)
19 | B19 | +++ (+++ = 6 to 13 fold improvement over control Variant No. 2)
20 | B20 | ++ (++ = 1.1 to 6 fold improvement over control Variant No. 2)
21 | B21 | ++ (++ = 1.1 to 6 fold improvement over control Variant No. 2)
22 | B22 | ++ (++ = 1.1 to 6 fold improvement over control Variant No. 2)
23 | B23 | +++ (+++ = 6 to 13 fold improvement over control Variant No. 2)
24 | B24 | ++ (++ = 1.1 to 6 fold improvement over control Variant No. 2)
25 | B25 | +++ (+++ = 6 to 13 fold improvement over control Variant No. 2)
26 | B26 | ++ (++ = 1.1 to 6 fold improvement over control Variant No. 2)
27 | B27 | ++ (++ = 1.1 to 6 fold improvement over control Variant No. 2)
